{"source": "paper PMC8814693", "about": "(Computational and Structural Biotechnology Journal, 2022)", "binders": {"B1": {"name": "synthetic BH3 peptide derived from Bid (residues 79-100) (peptide)", "peptide": "EDIIRNIARHLAQVGDSMDRS", "notes": "BH3 peptide of Bid; also called Bid BH3 peptide; representative BH3 peptide; source: synthetic peptide"}, "B2": {"name": "synthetic BH3 peptide derived from Bfk (residues 47-67) (peptide)", "peptide": "SFDVAIIAGRLRMLGDQFNGE", "notes": "BH3 peptide of human Bfk (BCL2L15), residues 47-67; also called Bfk BH3 peptide; Bfk BH3; source: synthetic peptide"}}, "conditions_in_all_cases": "both partners purified", "key": {"Bcl-2 (residues 1-207) [1]": {"target": "T1, Bcl-2 (residues 1-207) (UniProt P10415 1-207)", "T1 construct": "Bcl-2, residues 1-207; Cloned in pET-28a(+) between NdeI and XhoI; buffer-exchanged to HBS-EP", "T1 sequence (P10415 1-207)": "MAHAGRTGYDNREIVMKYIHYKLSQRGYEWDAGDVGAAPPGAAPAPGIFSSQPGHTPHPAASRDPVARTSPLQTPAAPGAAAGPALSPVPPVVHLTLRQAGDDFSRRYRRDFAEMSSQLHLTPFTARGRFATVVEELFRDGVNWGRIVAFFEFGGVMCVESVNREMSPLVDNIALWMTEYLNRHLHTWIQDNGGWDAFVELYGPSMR", "assay": "SPR; Bid BH3 peptide amine-coupled to a CM5 chip (10 mM sodium acetate pH 4.0); proteins injected in HBS-EP (10 mM HEPES pH 7.5, 150 mM NaCl, 0.05 mM EDTA, 0.005% Tween 20) at 30 uL/min for 90 s; Biacore T200; affinity experiments, responses plotted against concentration"}, "Bcl-XL (residues 1-209) [2]": {"target": "T2, Bcl-XL (residues 1-209) (UniProt Q07817-1 1-209)", "T2 construct": "Bcl-XL, residues 1-209; Cloned in pET-28a(+) between NdeI and XhoI; buffer-exchanged to HBS-EP", "T2 sequence (Q07817 1-209)": "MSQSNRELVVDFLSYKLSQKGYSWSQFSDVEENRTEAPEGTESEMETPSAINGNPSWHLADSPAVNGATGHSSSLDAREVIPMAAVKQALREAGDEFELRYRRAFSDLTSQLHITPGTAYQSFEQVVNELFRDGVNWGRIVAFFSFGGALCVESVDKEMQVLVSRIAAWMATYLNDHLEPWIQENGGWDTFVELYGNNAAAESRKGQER", "assay": "SPR; Bid BH3 peptide amine-coupled to a CM5 chip (10 mM sodium acetate pH 4.0); proteins injected in HBS-EP (10 mM HEPES pH 7.5, 150 mM NaCl, 0.05 mM EDTA, 0.005% Tween 20) at 30 uL/min for 90 s; Biacore T200; affinity experiments, responses plotted against concentration"}, "Bak (residues 23-186)": {"target": "T3, Bak (residues 23-186) (UniProt Q16611 23-186)", "T3 construct": "Bak, residues 23-186; Cloned in pET-28a(+) between NdeI and XhoI; buffer-exchanged to HBS-EP", "T3 sequence (looked up)": "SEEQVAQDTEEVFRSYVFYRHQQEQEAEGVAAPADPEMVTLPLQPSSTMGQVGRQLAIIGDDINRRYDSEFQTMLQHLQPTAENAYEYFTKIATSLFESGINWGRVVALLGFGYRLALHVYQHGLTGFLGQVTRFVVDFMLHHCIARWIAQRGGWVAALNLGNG", "assay": "SPR; Bid BH3 peptide amine-coupled to a CM5 chip (10 mM sodium acetate pH 4.0); proteins injected in HBS-EP (10 mM HEPES pH 7.5, 150 mM NaCl, 0.05 mM EDTA, 0.005% Tween 20) at 30 uL/min for 90 s; Biacore T200; affinity experiments, responses plotted against concentration"}, "Bcl-2 (residues 1-207) [3]": {"target": "T1, Bcl-2 (residues 1-207)", "assay": "SPR; Bfk BH3 peptide amine-coupled to a CM5 chip (10 mM sodium acetate pH 5.0); Bcl-2, Bcl-XL (3.13-200 nM) and Bak (1.25-40.0 uM) injected in HBS-EP at 30 uL/min for 90 s; Biacore T200; KD by steady-state affinity analysis"}, "Bcl-XL (residues 1-209) [4]": {"target": "T2, Bcl-XL (residues 1-209)", "assay": "SPR; Bfk BH3 peptide amine-coupled to a CM5 chip (10 mM sodium acetate pH 5.0); Bcl-2, Bcl-XL (3.13-200 nM) and Bak (1.25-40.0 uM) injected in HBS-EP at 30 uL/min for 90 s; Biacore T200; KD by steady-state affinity analysis"}}}
{"binder": "B1", "values": [{"measurement": "Kd", "setting": "Bcl-2 (residues 1-207) [1]", "result": 44, "unit": "nM"}, {"measurement": "Kd", "setting": "Bcl-XL (residues 1-209) [2]", "result": 87, "unit": "nM"}, {"measurement": "Kd", "setting": "Bak (residues 23-186)", "result": 37000, "unit": "nM"}]}
{"binder": "B2", "values": [{"measurement": "Kd", "setting": "Bcl-2 (residues 1-207) [3]", "result": 17.4, "unit": "nM"}, {"measurement": "Kd", "setting": "Bcl-XL (residues 1-209) [4]", "result": 36.9, "unit": "nM"}]}
